In the Human Domainome abundance scans (Beltran et al. 2025):
± gives the uncertainty stated by the source.

B1: Apoptosis-associated speck-like protein containing a CARD, residues 114 to 194; numbered along this chain, Q9ULZ3 (parent)
chain: FIDQHRAALIARVTNVEWLLDALYGKVLTDEQYQAVRAEPTNPSKMRKLFSFTPAWNWTCKDLLLQALRESQSYLVEDLER
B2: Serine/threonine-protein kinase LATS1, residues 98 to 141; numbered along this chain, O95835 (parent)
chain: TSEVNPQMLQDLQAAGFDEDMVIQALQKTNNRSIEAAIEFISKM

Variants of: B1
Experiment: abundance fitness (aPCA) (normalised: wild type 0, dead -1); higher = more abundant; growth selection in yeast, the domain comes from the species named
Conditions: Homo sapiens

| Variant | abundance fitness |
| --- | --- |
| E77M | -0.244 ± 0.14 |
| E77H | -0.365 ± 0.19 |
| E77I | -0.479 ± 0.18 |
| E77F | -0.147 ± 0.22 |
| E77D | -0.115 ± 0.11 |
| E77Y | -0.491 ± 0.14 |
| E77V | -0.658 ± 0.08 |
| E77P | -0.66 ± 0.14 |
| E77L | -0.428 ± 0.08 |
| E77T | -0.63 ± 0.19 |
| E77G | -0.481 ± 0.049 |
| E77C | -0.616 ± 0.18 |
| A67Q | -0.711 ± 0.14 |
| A67L | 0.033 ± 0.051 |
| A67R | -0.622 ± 0.084 |
| A67P | -0.658 ± 0.11 |
| A67Y | -0.239 ± 0.13 |
| A67V | -0.484 ± 0.055 |
| A67N | -0.278 ± 0.22 |

| Variant | abundance fitness |
| --- | --- |
| A67T | -0.452 ± 0.12 |
| A67S | -0.544 ± 0.086 |
| A67K | -0.446 ± 0.18 |
| A67W | -0.491 ± 0.099 |
| A67I | -0.372 ± 0.19 |
| R69L | -0.502 ± 0.071 |
| R69D | -0.859 ± 0.4 |
| R69I | -0.195 ± 0.13 |
| R69F | -0.636 ± 0.27 |
| R69M | -0.505 ± 0.13 |
| R69P | -0.753 ± 0.12 |
| R69E | -0.29 ± 0.13 |
| R69A | -0.54 ± 0.094 |
| R69Y | -0.62 ± 0.09 |
| R69Q | -0.716 ± 0.16 |
| R69H | -0.517 ± 0.21 |
| R69N | -0.581 ± 0.16 |
| R69C | -0.367 ± 0.13 |
| R69G | -0.736 ± 0.082 |

| Variant | abundance fitness |
| --- | --- |
| R69T | -0.538 ± 0.12 |
| R69V | -0.378 ± 0.073 |
| R69W | -0.679 ± 0.12 |
| R69K | 0.031 ± 0.088 |
| E70Y | -0.588 ± 0.23 |
| E70S | -0.265 ± 0.067 |
| E70F | -0.401 ± 0.12 |
| E70M | -0.46 ± 0.11 |
| E70P | -0.542 ± 0.12 |
| E70K | -0.116 ± 0.17 |
| E70C | -0.202 ± 0.084 |
| E70D | -0.152 ± 0.12 |
| E70T | -0.181 ± 0.1 |
| E70R | -0.343 ± 0.061 |
| E70I | -0.468 ± 0.18 |
| E70N | -0.322 ± 0.16 |
| E70A | -0.209 ± 0.086 |
| E70V | -0.211 ± 0.059 |
| E70L | -0.467 ± 0.074 |

Variants of: B2
Experiment: as above
Conditions: Homo sapiens

| Variant | abundance fitness |
| --- | --- |
| M21C | -0.126 ± 0.063 |
| M21W | -0.32 ± 0.044 |
| A15K | -0.046 ± 0.067 |
| A15F | -0.3 ± 0.087 |
| I34V | 0.026 ± 0.034 |
| I34Y | -0.468 ± 0.15 |
| I34F | -0.192 ± 0.074 |
| A25N | -0.622 ± 0.13 |
| A25M | -0.887 ± 0.1 |
| A25K | -0.684 ± 0.083 |
| S42R | 0.048 ± 0.033 |
| S42E | 0.136 ± 0.038 |
| S42H | 0.054 ± 0.071 |
| D20R | -0.142 ± 0.036 |
| D20M | -0.168 ± 0.046 |
| V4Y | -0.272 ± 0.085 |
| V4C | -0.277 ± 0.044 |
| T29L | -0.954 ± 0.071 |
| T29P | -0.524 ± 0.1 |
| T29I | -0.589 ± 0.073 |
| T29F | -1.09 ± 0.16 |
| I41K | -0.255 ± 0.052 |

| Variant | abundance fitness |
| --- | --- |
| I41V | -0.411 ± 0.035 |
| I41F | -0.525 ± 0.1 |
| I41A | -0.282 ± 0.035 |
| I41Y | -0.434 ± 0.068 |
| Q27M | -0.123 ± 0.044 |
| Q27C | -0.273 ± 0.042 |
| Q27T | -0.007 ± 0.044 |
| Q27V | -0.043 ± 0.039 |
| Q10P | -1 ± 0.11 |
| Q10I | -0.267 ± 0.044 |
| Q10L | -0.173 ± 0.034 |
| Q24K | 0.035 ± 0.06 |
| Q24T | 0.009 ± 0.044 |
| Q13Y | -0.53 ± 0.054 |
| A37G | -0.401 ± 0.032 |
| A37P | -0.42 ± 0.1 |
| A37N | -0.446 ± 0.098 |
| A37H | -0.621 ± 0.18 |
| A37L | -0.728 ± 0.06 |
| N5M | -0.951 ± 0.096 |
| M44L | -0.11 ± 0.038 |
| M44E | 0.052 ± 0.056 |

| Variant | abundance fitness |
| --- | --- |
| M44P | -0.148 ± 0.056 |
| N30S | -0.107 ± 0.042 |
| E39W | -0.728 ± 0.051 |
| E39P | -0.483 ± 0.16 |
| I23G | -0.322 ± 0.034 |
| I23M | -0.055 ± 0.045 |
| P6V | -0.032 ± 0.034 |
| P6N | 0.249 ± 0.096 |
| P6Q | 0.081 ± 0.053 |
| P6G | -0.048 ± 0.031 |
| P6D | 0.007 ± 0.066 |
| P6W | -0.201 ± 0.043 |
| E19R | 0.078 ± 0.033 |
| E19N | -0.233 ± 0.05 |
| E19A | -0.097 ± 0.039 |
| A14K | 0.007 ± 0.059 |
| A14S | -0.047 ± 0.045 |
| A14G | -0.19 ± 0.032 |
| A14P | -0.898 ± 0.15 |
| A36H | -0.206 ± 0.056 |
| A36C | -0.169 ± 0.041 |
| K43I | -0.435 ± 0.14 |

| Variant | abundance fitness |
| --- | --- |
| K43G | -0.036 ± 0.033 |
| I38M | -0.016 ± 0.045 |
| F40C | -0.016 ± 0.058 |
| F40W | 0.075 ± 0.038 |
| F40D | -0.055 ± 0.058 |
| E35H | -0.151 ± 0.089 |
| E35D | 0.005 ± 0.054 |
| E35K | -0.169 ± 0.047 |
| E35T | -0.158 ± 0.053 |
| R32D | -0.26 ± 0.042 |
| R32W | -0.484 ± 0.043 |
| R32T | -0.004 ± 0.042 |
| R32P | -0.434 ± 0.043 |
| D18Y | -0.837 ± 0.11 |
| D18A | -0.032 ± 0.036 |
| D18K | -0.117 ± 0.045 |
| D18W | -0.853 ± 0.12 |
| S2G | 0.029 ± 0.034 |
| S2C | -0.154 ± 0.093 |
| S2Y | -0.231 ± 0.086 |
| S33W | -1.12 ± 0.11 |
| S33L | -1.25 ± 0.092 |

| Variant | abundance fitness |
| --- | --- |
| Q7G | -0.157 ± 0.033 |
| Q7P | -0.796 ± 0.063 |
| Q7K | 0.009 ± 0.04 |
| L12F | -0.737 ± 0.12 |
| L12I | -0.364 ± 0.077 |
| L12H | -0.573 ± 0.12 |
| M8L | -0.203 ± 0.035 |
| M8Y | -0.151 ± 0.044 |
| M8D | -0.419 ± 0.074 |
| E3W | -0.116 ± 0.05 |
| L26H | -0.111 ± 0.16 |
| L26G | -0.358 ± 0.032 |
| G16Q | -0.953 ± 0.13 |
| G16L | -0.898 ± 0.1 |
| L9F | -0.082 ± 0.051 |
| L9N | -0.445 ± 0.12 |
| F17P | -0.601 ± 0.058 |
| F17K | -0.648 ± 0.11 |
| T1E | 0.019 ± 0.16 |
| T1D | 0.018 ± 0.087 |
| K28V | -0.163 ± 0.036 |
| K28S | -0.041 ± 0.035 |
